According to patent publication US20250360126:

Test system: T1, NPM2 (embryonic NPM1 paralog)
T1 sequence (Q86SE8 1-214, species assumed, looked up): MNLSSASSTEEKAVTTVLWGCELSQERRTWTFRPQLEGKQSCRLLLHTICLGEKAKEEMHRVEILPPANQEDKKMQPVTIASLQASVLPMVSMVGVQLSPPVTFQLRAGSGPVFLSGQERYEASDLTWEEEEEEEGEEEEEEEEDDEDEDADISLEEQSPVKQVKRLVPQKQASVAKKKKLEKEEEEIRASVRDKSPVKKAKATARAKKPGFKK

B1: CCP5 (cytosolic carboxypeptidase-like 5) (enzyme, UniProt Q8NDL9 1-886, looked up, species assumed)
Cytosolic carboxypeptidase-like protein 5: MELRCGGLLFSSRFDSGNLAHVEKVESLSSDGEGVGGGASALTSGIASSPDYEFNVWTRPDCAETEFENGNRSWFYFSVRGGMPGKLIKINIMNMNKQSKLYSQGMAPFVRTLPTRPRWERIRDRPTFEMTETQFVLSFVHRFVEGRGATTFFAFCYPFSYSDCQELLNQLDQRFPENHPTHSSPLDTIYYHRELLCYSLDGLRVDLLTITSCHGLREDREPRLEQLFPDTSTPRPFRFAGKRIFFLSSRVHPGETPSSFVFNGFLDFILRPDDPRAQTLRRLFVFKLIPMLNPDGVVRGHYRTDSRGVNLNRQYLKPDAVLHPAIYGAKAVLLYHHVHSRLNSQSSSEHQPSSCLPPDAPVSDLEKANNLQNEAQCGHSADRHNAEAWKQTEPAEQKLNSVWIMPQQSAGLEESAPDTIPPKESGVAYYVDLHGHASKRGCFMYGNSFSDESTQVENMLYPKLISLNSAHFDFQGCNFSEKNMYARDRRDGQSKEGSGRVAIYKASGIIHSYTLECNYNTGRSVNSIPAACHDNGRASPPPPPAFPSRYTVELFEQVGRAMAIAALDMAECNPWPRIVLSEHSSLTNLRAWMLKHVRNSRGLSSTLNVGVNKKRGLRTPPKSHNGLPVSCSENTLSRARSFSTGTSAGGSSSSQQNSPQMKNSPSFPFHGSRPAGLPGLGSSTQKVTHRVLGPVREPRSQDRRRQQQPLNHRPAGSLAPSPAPTSSGPASSHKLGSCLLPDSFNIPGSSCSLLSSGDKPEAVMVIGKGLLGTGARMPCIKTRLQARPRLGRGSPPTRRGMKGSSGPTSPTPRTRESSELELGSCSATPGLPQARPPRPRSAPAFSPISCSLSDSPSWNCYSRGPLGQPEVCFVPKSPPLTVSPRV
deglutamylation of substrate, blot (FIG. 2C): the CCP5 enzyme deglutamylates NPM2
